In the nanobody polyreactivity screen of Harvey et al. (2022):

Test: yeast display, Sf9 membrane polyspecificity reagent, FACS + sequencing; frameworks hold sequencing errors
How it was run: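 Genes from sorted yeast were amplified by colony PCR, read by MiSeq 2 × 250 sequencing and filtered on CDR length. These cells carried a synthetic nanobody library in Saccharomyces cerevisiae BJ5465 and were sorted by FACS into low and high (top ~1%) gates on anti-HA and streptavidin fluorescence. Polyreactivity is labelled according to the gate of origin.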

Row | Sequence | polyreactivity (PSR sort gate)
1 | QVQLVESGGGLVQAGGSLRLSCAASGRTFYYYVMGWYRQAPGKERELVAAISARDGSTYYADSVKGRFTISRDNAKNTVYLQMNSLKPEDTAVYYCNVRALYTRRYDYWGQGTQVTVSS | high polyreactivity
2 | QVQLVESGGGLVQAGGSLRLSCAASGRTGVNAMGWYRQAPGKERGLVAAINTSVGRTYYADSVKGRFTISRDNAKNTVYLQMNSLKQEDTAVYYCNTDRLGAARYDYWGHGTQVTVSS | low polyreactivity
3 | QVQLVESGGGLVQAGGSLRLSCAASGRTIAAYAMGWYRQAPGKERELVAAISRSGGSTYYADSVKGRFTISRDNAKNTVYLQMNSLKPEDTAVYYCAAYYIVSSLFGYWGQGTQVTVSS | high polyreactivity
4 | QVQLVESGGGLVQAGGSLRLSCAASGRTIHFNTMGWYRQAPGKERELVAAIRWGGNTYYADSVKGRFTISRDNAKNTVYLQKNSLKPEDTAVYYCAADRWYYFLMYYWGQGTQVTVSS | low polyreactivity
5 | QVQLVESGGGLVQAGGSLRLSCAASGRTIKKYAMGWDRQAPGQEREFVAAITGSGGSTYYADSVKGRFTISRDNAKNTVYLQMNSLKPEDTAVYYCAAYAYGVWHSQDGGNYWGKGTQVTVSS | low polyreactivity
6 | QVQLVESGGGLVQAGGSLRLSCAASGRTIKRYAMGWYRQAPGKERELVATISRSGSSTYYADSVKGRFTISRDNAKNTVYLQMNSLIPEDTAVYYCNAYVPDIWVNGYDSWGQGTQVTVSS | high polyreactivity
7 | QVQLVESGGGLVQAGGSLRLSCAASGRTIKSNDMGWYRQAPGKERELVSAISRRGGSTYYADSVKGRFTISRDNAKNTVYLQMNSLKPEDTAVYYCAADLTFSYRQSAGRYSTYGYWGQGTQVTVSS | high polyreactivity
8 | QVQLVESGGGLVQAGGSLRLSCAASGRTINRYAMGWYRQAPGKERELVAAISTSGGTTYYADSVKGRFTISRDNAKNTVYLQMNSLKPEDTAVYYCNARALAYWGQGTQVTVSS | high polyreactivity
9 | QVQLVESGGGLVQAGGSLRLSCAASGRTINRYDMGWYRQAPGKERELVAAISTSGGTTYYADSVKGRFTISRDNAKNTVYLQMNSLKPEDTAVYYCNARALAYWGQGTKVTVSS | high polyreactivity
10 | QVQLVESGGGLVQAGGSLRLSCAASGRTIPIYAMGWYRQEPGKERYLVAAITYSGGSTYYADSVKGRFTISRDNAKNSVYLQMNSLKPEDTAVYYCAVDGTKPYWHQRYVYWGQGTQVTVSS | low polyreactivity
11 | QVQLVESGGGLVQAGGSLRLSCAASGRTIQYYTMGWYRQAPGKERELVAGITYRGSSTYYADSVKGRFTISRDNAKNTVYLQMNSLKPEDTAVYYCAAGYWAYVWYYYWGQGTQVTVSS | high polyreactivity
12 | QVQLVESGGGLVQAGGSLRLSCAASGRTIRGYTMGWYRQAPGKERELVATITKRGGSTTYADSVKGRFTISRDNAKNTVYLQMNSLKPEDTAVYYCNKDTITSTWTPYTSWFGYWGQGTQVTVSS | high polyreactivity
13 | QVQLVESGGGLVQAGGSLRLSCAASGRTIRLYGMGSYRQAPGKERELVAAITWSGGRTYYADSVKGRFTISRDNEKNTFYLQMNSLKPEDSAVYYCAAGNSSYGKPKYYYWGQGTQVTVSS | high polyreactivity
14 | QVQLVESGGGLVQAGGSLRLSCAASGRTIRSYAMGRSRQAPGKEREWVAAISWSGGRTYYADSVKGRFTISRDNAKYTVYLQMTSLKPEDTADYYCAARVSVGVPRYEYWGQGTQVTVSA | high polyreactivity
15 | QVQLVESGGGLVQAGGSLRLSCAASGRTISHNVMGWYIKAPGKERELVAAISRNGGRTYYADSVKGRFTISRDNAKNTVYLQMNSLKPEDTAVYYCAKRRSYFLHSYYSYGYWGQGTQVTVSS | high polyreactivity
16 | QVQLVESGGGLVQAGGSLRLSCAASGRTISINAMGWYRQAPGKERELVADISKSGGRTYYADSVKGRFTISRDNAKNTVYLQMNSLKPEDTAVYYCAKGAYYVPVIYHAVYSWGQGTQVTVSS | low polyreactivity
17 | QVQLVESGGGLVQAGGSLRLSCAASGRTISRYAMGWYRQAPGKERELVATITSGGSTNYADSVKGRFTISRDNAKNTLYLQMNSLKPEDTAVYYCNAQSWYIVPYDYWGQGTQVTVSS | low polyreactivity
18 | QVQLVESGGGLVQAGGSLRLSCAASGRTISYAMGWYRQAPGKERELVAAIRYRGGSTYYADSVKGRFTISRDNAKNTVYLQMNSQKPEDTAVYYCAAQDSYTPPILFRRGYLRYDYWGQGTQVTVSS | low polyreactivity
19 | QVQLVESGGGLVQAGGSLRLSCAASGRTIVIYAMGWYRQAPGKERELVAAIRSGGRTNYADSVKVRFTISRDNAKNTVYLQMNSLIPEDTAVYYCATRGWLRSGYDYWGQGTQVTVSS | high polyreactivity
20 | QVQLVESGGGLVQAGGSLRLSCAASGRTIWRYAMGWYRKAPGKERELVAAISWSGTSTYYADSVKGRFTISRDNAKNTVYLQMNSLKPEDTAVYYCAVAYPFYGKTLFSPQADYNYWGQGTQVTVSS | high polyreactivity
21 | QVQLVESGGGLVQAGGSLRLSCAASGRTIWTYVMGWYRQAPGKERELVAAISRSGSSTYYADSVKGRFTISRDNAKNTVYLQMNSLKPEDTAVYYCNKVDGTTLDDHYMDYWGQGTQVTVSS | low polyreactivity
22 | QVQLVESGGGLVQAGGSLRLSCAASGRTIYQYAMGWYRQAPGKERELVAAISRGGSTNYADSLKGRFTISRDNAKNTVYLQMNSLKPEDTAVYYCASWYKFLSLKRLYERDYWGQGTQVTVSS | high polyreactivity
23 | QVQLVESGGGLVQAGGSLRLSCAASGRTIYRYDMGWYRQSPGKERKFVAPISWSGGRTYYADSVKGRFTIARDNAKNTVYLQMNSLKPEDTAVYYCAAEYPWSVGYWRYGLDDYWGQGTQVSVSS | high polyreactivity
24 | QVQLVESGGGLVQAGGSLRLSCAASGRTIYSYAMVLNTQAPGKERELVAAISRRGGSTYYADSVKGRFTISRDNAKNTVYLQLNSLIPEDTAVYYCAKRYTPLPYKGIWYYYWGQGTQVTVSS | high polyreactivity
25 | QVQLVESGGGLVQAGGSLRLSCAASGRTLAHYTMGWYRQAPGKERELVAAITFSGGRTYYAHSVKGRFTISRDNAKNTVYLQMNSLKPEDTAVYYCAAPGRCYYRGDDYWGQGTQVTVSS | low polyreactivity
26 | QVQLVESGGGLVQAGGSLRLSCAASGRTLARNAMGWYRQAPGKERELVAGITSGGSTDYADSVKGRFTISRDNAKNTVYLQMNSLKPEDTAVYYCNRDAGPGGDYWGQGTQVTVSS | low polyreactivity
27 | QVQLVESGGGLVQAGGSLRLSCAASGRTLASNAMGWFRQSPGKERELVAAINRGGSTYYADSVKGRFTISRDNAMNTVYLQMNSLKPEDTAVYYCAVDRYRYPFDYWGQGTQVTVSS | low polyreactivity
28 | QVQLVESGGGLVQAGGSLRLSCAASGRTLDYNAMGLYRQAPGKERELVAAISWTGDSTYYADSVKGRFTISRDNAKNTVNLQMNSLKPEDTAVYYCAASYSRFVDWIGDPGYDYWGQGTQVTVSS | low polyreactivity
29 | QVQLVESGGGLVQAGGSLRLSCAASGRTLFGNAMGWYRQAPAKERELVAAISRRGGSTSYADSVKGRFTISRDNAKNTVYLQMNSLKPEDTAVYYCASAQGKYTGTHYPYDYWGQGTQVTVSS | low polyreactivity
30 | QVQLVESGGGLVQAGGSLRLSCAASGRTLFGNAMGWYRQAPGKERELVAAISRRGGSTSYADSVKGRFTISRDNAKNTVYLQMNSLKPEDTAVYYCAAAQGKYTGTHYPYDYWGQGTQVTVSS | high polyreactivity
